This passage reports protein stability index results from the supplement of paper PMC10567573.

B1: PDZK1 (parent)
chain: RETASLKLLPHQPRIVEMKKGSNG
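Also: lentivirally expressed fusions sorted by FACS into six bins by GFP to DsRed ratio, PSI derived from sequencing read proportions per bin multiplied by bin number.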

In this series the parent is B1. The series is described as follows: protein stability index of a GFP-peptide fusion (GPS, HEK-293T) (PSI 1-6); higher = more stable. To be noted: c terminus: a fixed tail appended.
With RETASLKLLPHHPRIVEMKKGSNG [Q12H], the protein stability index is 3.97. In the case of RETASLKLLPHFPRIVEMKKGSNG [Q12F], the protein stability index stood at 2.97. For RETASLKLLPHAPRIVEMKKGSNG [Q12A], the protein stability index amounted to 3.54.

In the case of RETASLKLLPHLPRIVEMKKGSNG [Q12L], the protein stability index was 3.27. In the case of RETASLKLLPHGPRIVEMKKGSNG [Q12G], the protein stability index came out at 3.62. For RETASLKLLPHDPRIVEMKKGSNG [Q12D], the protein stability index stood at 3.3.

Take RETASLKLLPHKPRIVEMKKGSNG [Q12K]: the protein stability index is 3.66.

Consider RETASLKLLPHEPRIVEMKKGSNG [Q12E], for which the protein stability index was determined as 2.88. Regarding RETASLKLLPHIPRIVEMKKGSNG [Q12I], the protein stability index worked out at 2.85. The figure for RETASLKLLPHMPRIVEMKKGSNG [Q12M] is 3.38; for RETASLKLLPHNPRIVEMKKGSNG [Q12N] it is 3.84; for RETASLKLLPHSPRIVEMKKGSNG [Q12S] it is 4.05. As to RETASLKLLPHPPRIVEMKKGSNG [Q12P], the protein stability index was determined as 4.03.

RETASLKLLPHCPRIVEMKKGSNG [Q12C]: the protein stability index is 3.27. With RETASLKLLPHTPRIVEMKKGSNG [Q12T], the protein stability index was 3.26. With RETASLKLLPHRPRIVEMKKGSNG [Q12R] the figure was 3.65. For the variant RETASLKLLPHWPRIVEMKKGSNG [Q12W], the protein stability index is 3.2. With RETASLKLLPHVPRIVEMKKGSNG [Q12V] the figure was 3.09; with RETASLKLLPHQPRITEMKKGSNG [V16T], 4.67. The figure for RETASLKLLPHQPRINEMKKGSNG [V16N] is 4.88; for RETASLKLLPHQPRIWEMKKGSNG [V16W] it is 3.57; for RETASLKLLPHQPRIEEMKKGSNG [V16E] it is 4.53. RETASLKLLPHQPRIAEMKKGSNG [V16A]: the protein stability index stood at 4.42. Take RETASLKLLPHQPRIHEMKKGSNG [V16H]: the protein stability index came out at 4.35.

RETASLKLLPHQPRIIEMKKGSNG [V16I]: the protein stability index was 3.9. With RETASLKLLPHQPRISEMKKGSNG [V16S], the protein stability index worked out at 3.92. Turning to RETASLKLLPHQPRIPEMKKGSNG [V16P], the protein stability index worked out at 4.63. On to RETASLKLLPHQPRIQEMKKGSNG [V16Q], for which the protein stability index is 4.51. As to RETASLKLLPHQPRIMEMKKGSNG [V16M], the protein stability index is 4.17. The figure for RETASLKLLPHQPRIDEMKKGSNG [V16D] is 4.18; for RETASLKLLPHQPRIGEMKKGSNG [V16G] it is 4.85. With RETASLKLLPHQPRILEMKKGSNG [V16L] the figure was 3.87; with RETASLKLLPHQPRIFEMKKGSNG [V16F], 4.05; with RETASLKLLPRQPRIVEMKKGSNG [H11R], 3.35. Turning to RETASLKLLPWQPRIVEMKKGSNG [H11W], the protein stability index was determined as 3.29.

For RETASLKLLPSQPRIVEMKKGSNG [H11S], the protein stability index worked out at 3.52. With RETASLKLLPQQPRIVEMKKGSNG [H11Q] the figure was 3.23; with RETASLKLLPYQPRIVEMKKGSNG [H11Y], 3.5; with RETASLKLLPPQPRIVEMKKGSNG [H11P], 3.25.

RETASLKLLPNQPRIVEMKKGSNG [H11N]: the protein stability index is 3.38. For the variant RETASLKLLPMQPRIVEMKKGSNG [H11M], the protein stability index came out at 2.75. With RETASLKLLPVQPRIVEMKKGSNG [H11V] the figure was 2.59; with RETASLKLLPTQPRIVEMKKGSNG [H11T], 3.73; with RETASLKLLPHQPIIVEMKKGSNG [R14I], 3.86. On to RETASLKLLPHQPWIVEMKKGSNG [R14W], for which the protein stability index was determined as 3.3. Consider RETASLKLLPHQPKIVEMKKGSNG [R14K], for which the protein stability index was determined as 3.38.

As to RETASLKLLPHQPHIVEMKKGSNG [R14H], the protein stability index was 3.7. As for RETASLKLLPHQPSIVEMKKGSNG [R14S], the protein stability index was 3.87. The figure for RETASLKLLPHQPAIVEMKKGSNG [R14A] is 4.25; for RETASLKLLPHQPGIVEMKKGSNG [R14G] it is 4.05. For RETASLKLLPHQPCIVEMKKGSNG [R14C], the protein stability index was determined as 3.63.

In the case of RETASLKLLPHQPDIVEMKKGSNG [R14D], the protein stability index was 4.61. For the variant RETASLKLLPHQPTIVEMKKGSNG [R14T], the protein stability index stood at 4.22. Take RETASLKLLPHQPMIVEMKKGSNG [R14M]: the protein stability index worked out at 2.93. The figure for RETASLKLLPHQPYIVEMKKGSNG [R14Y] is 3.34; for RETASLKLLPHQPNIVEMKKGSNG [R14N] it is 4.13. Turning to RETASLKLLPHQPEIVEMKKGSNG [R14E], the protein stability index came out at 4.07.

With RETASLKLLPHQGRIVEMKKGSNG [P13G], the protein stability index stood at 4.14. For the variant RETASLKLLPHQTRIVEMKKGSNG [P13T], the protein stability index came out at 3.99. The figure for RETASLKLLPHQARIVEMKKGSNG [P13A] is 4.09; for RETASLKLLPHQQRIVEMKKGSNG [P13Q] it is 4.81. Consider RETASLKLLPHQKRIVEMKKGSNG [P13K], for which the protein stability index came out at 4.07. With RETASLKLLPHQLRIVEMKKGSNG [P13L] the figure was 4.35.

On to RETASLKLLPHQRRIVEMKKGSNG [P13R], for which the protein stability index was 3.77.

Take RETASLKLLPHQNRIVEMKKGSNG [P13N]: the protein stability index worked out at 3.67. With RETASLKLLPHQERIVEMKKGSNG [P13E] the figure was 4.4. The figure for RETASLKLLPHQHRIVEMKKGSNG [P13H] is 3.73. Consider RETASLKLLPHQIRIVEMKKGSNG [P13I], for which the protein stability index turned out to be 3.29. RETASLKLLPHQFRIVEMKKGSNG [P13F]: the protein stability index was determined as 3.63. Take RETASLKLLPHQSRIVEMKKGSNG [P13S]: the protein stability index was 3.92. With RETASLKLLPHQCRIVEMKKGSNG [P13C] the figure was 2.35. Take RETASLKLLPHQWRIVEMKKGSNG [P13W]: the protein stability index was 3.25. The figure for RETASLKLLPHQDRIVEMKKGSNG [P13D] is 4.22. Turning to RETASLKLLPHQVRIVEMKKGSNG [P13V], the protein stability index was found to be 4.14.

As to RETASLKLLPHQYRIVEMKKGSNG [P13Y], the protein stability index turned out to be 3.4. As for RETASLKLLPHQMRIVEMKKGSNG [P13M], the protein stability index was determined as 3.88.

As for RETASLKLLPHQPRAVEMKKGSNG [I15A], the protein stability index turned out to be 4.78. For RETASLKLLPHQPRTVEMKKGSNG [I15T], the protein stability index was determined as 4.49. The figure for RETASLKLLPHQPRNVEMKKGSNG [I15N] is 4.99; for RETASLKLLPHQPRKVEMKKGSNG [I15K] it is 4.75; for RETASLKLLPHQPRCVEMKKGSNG [I15C] it is 4.3.

Turning to RETASLKLLPHQPRFVEMKKGSNG [I15F], the protein stability index amounted to 3.44. In the case of RETASLKLLPHQPRGVEMKKGSNG [I15G], the protein stability index is 5.16. For RETASLKLLPHQPREVEMKKGSNG [I15E], the protein stability index turned out to be 5.02.

On to RETASLKLLPHQPRQVEMKKGSNG [I15Q], for which the protein stability index was found to be 4.72.

For the variant RETASLKLLPHQPRYVEMKKGSNG [I15Y], the protein stability index is 4.01. With RETASLKLLPHQPRLVEMKKGSNG [I15L] the figure was 4.16; with RETASLKLLPHQPRWVEMKKGSNG [I15W], 2.79; with RETASLKLLPHQPRPVEMKKGSNG [I15P], 4.39.

On to RETASLKLLPHQPRMVEMKKGSNG [I15M], for which the protein stability index is 3.89. For the variant RETASLKLLPHQPRRVEMKKGSNG [I15R], the protein stability index worked out at 4.51. For RETASLKLLPHQPRVVEMKKGSNG [I15V], the protein stability index was 3.51. With RETASLKLLPHQPRSVEMKKGSNG [I15S] the figure was 4.69; with RETASLKLLPHQPRDVEMKKGSNG [I15D], 4.66.
